Assay results as given in PMC5457526.
Blank lines part the entries; values can stand above or below the substance they belong to.

What was measured:
[1] = biological target: constitutive dimer mutant NT_(E79QE84QE119Q) of the E. australis MaSp1 N-terminal domain (Euprosthenops australis); test: SEC; Superdex 75, 2 mg ml^-1, 20 mM Tris, 150 mM NaCl, 1 mM EDTA, pH 8, room temperature; monomer to dimer
[2] = biological target: constitutive dimer mutant NT_(E79QE84QE119Q) of the E. australis MaSp1 N-terminal domain (Euprosthenops australis); test: SEC; Superdex 75, 2 mg ml^-1, 20 mM MES, 150 mM NaCl, 1 mM EDTA, pH 5.5, room temperature; monomer to dimer
[3] = biological target: wild-type N-terminal domain (NT) of Euprosthenops australis major ampullate spidroin protein (MaSp) 1 (Euprosthenops australis); test: as above
[4] = biological target: recombinant fragment human surfactant protein D (human); test: native MS; ESI-MS of SEC separated protein in 100 mM ammonium acetate, pH 7.5
[5] = biological target: recombinant fragment human surfactant protein D (human); test: SEC; Superdex 200, 1.5 mg ml^-1, 20 mM Tris, 150 mM NaCl, 1 mM EDTA, pH 8

- stoichiometry N [1]: 2
- stoichiometry N [2]: 2
Substance: constitutive dimer mutant NT_(E79QE84QE119Q) of the E. australis MaSp1 N-terminal domain (domain or fragment)

- stoichiometry N [3]: 2
Substance: wild-type N-terminal domain (NT) of Euprosthenops australis major ampullate spidroin protein (MaSp) 1 (domain or fragment)

- stoichiometry N [4]: 3
- stoichiometry N [5]: 3
Substance: recombinant fragment human surfactant protein D (domain or fragment)
